Results published in patent publication US20020031818A1, “Modification of Mdm2 activity” (priority 2000, published 2002).

Columns and labels:
Mdm2 [1] = molecular target: T1, Mdm2 (Homo sapiens, UniProt Q00987); test: In vivo sumoylation of Mdm2 in p53/Mdm2 double null cells; format: cell-based; set-up: expressed in transfected cells; host or cells: p53/Mdm2 double null cells; conditions: Flag-Mdm2, HA-SUMO, p19 wt 1.5 μg each; MG132
Experimental: FIGS. 10A-10D. A. Time dependent Mdm2 sumoylation in vitro. Bacterially expressed and purified GST-Mdm2 was subjected to in vitro sumoylation reaction in the presence of E1, Ubc9, and ^35S-Sumos. Reaction was terminated after 10,30,50 or 60 minutes, Proteins were separated on 8% gel, Commassie stained, dryed and exposed overnight (upper panel). Lower panel depicts Commassie blue staining of Mdm2 forms. B. A peptide corresponding to the Ubc-9 binding site on Mdm2 decreases Mdm2 in vitro sumoylation of Mdm2 in a time-dependent manner. (Upper part) The specific Ubc-9-binding site peptide or a nonspecific peptide was added to the reaction for the indicated time periods. […] The lower panel depicts a Coomassie staining visualizing relative amounts of sumoylated and non-sumoylated forms of purified GST-Mdm2. C. The Mdm2 sumoylation assay was carried out in the presence of Ubc-9-binding site peptide (mu9bs) or a nonspecific peptide ([…]) which were added to the reaction at the indicated concentrations. […] D. A peptide corresponding to the Ubc-9 binding site on Mdm2 decreases Mdm2 sumoylation in vivo. […] Immunoprecipitated Mdm2 levels were detected using 2A10 antibodies (top). […]
FIG. 13A-13E. […] (Left) Immunoprecipitated Mdm2 was detected using monoclonal Mdm2 antibodies (2A10, left). […]

Mdm2 [2] = molecular target: T1, Mdm2; test: Co-immunoprecipitation of p19ARF forms with Mdm2; format: cell-based; set-up: expressed in transfected cells; host or cells: 293T; conditions: forced expression of Mdm2 and wt or Δ62 p19ARF

T1 sequence (Q00987 whole entry): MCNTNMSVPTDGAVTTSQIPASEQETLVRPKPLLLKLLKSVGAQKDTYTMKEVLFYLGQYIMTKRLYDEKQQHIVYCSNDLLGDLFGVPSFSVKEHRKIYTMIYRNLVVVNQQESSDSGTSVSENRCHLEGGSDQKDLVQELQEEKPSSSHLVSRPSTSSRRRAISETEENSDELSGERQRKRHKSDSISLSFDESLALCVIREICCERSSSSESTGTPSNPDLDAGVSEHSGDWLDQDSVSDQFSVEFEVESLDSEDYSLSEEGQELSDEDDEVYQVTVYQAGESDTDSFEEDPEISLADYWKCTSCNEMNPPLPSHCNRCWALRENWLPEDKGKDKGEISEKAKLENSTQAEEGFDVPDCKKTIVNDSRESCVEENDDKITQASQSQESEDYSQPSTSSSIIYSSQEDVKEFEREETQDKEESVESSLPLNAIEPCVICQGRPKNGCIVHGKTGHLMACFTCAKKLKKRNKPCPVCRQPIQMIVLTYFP

B1: p19^ARF: Mdm2-regulating protein; in vitro translated, bacculovirus-expressed or transfected (protein)
chain: MGRRFLVTVRIQRAGRPLQERVFLVKFVRSRRPRTASCALAFVNMLLRLERILRRGPHRNPGPGDDDGQRSRSSSSAQLRCRFELRGPHYLLPPGARRSAGRLPGHAGGAARVRGSAGCARCLGSPAARLGPRAGTSRHRAIFAFRWVLFVFRWVVFVYRWERRPDRRA
For B1, the “Mdm2 sumoylation in Mdm2/p53-/- cells upon p19ARF co-expression” value (Mdm2 [1]) was “reduced the degree of Mdm2 sumoylation” and the “complex of p19ARF form with Mdm2” value (Mdm2 [2]) was “only the wt form in complex with Mdm2”.
